Measured values reported in PMC9613699.

Assay: western blot, endogenous PD-L1 in RBMS1-depleted MDA-MB-231, ±IFN-γ
Details: glycan lost; control: untreated

Substance: PD-L1 (programmed death ligand 1; B7-H1, CD274): tunicamycin
- other: dependence of PD-L1 protein level on RBMS1: abolishes
